The source of these data is patent US20210130473A1 (SILVERBACK THERAPEUTICS, published 2021).

As a reminder, the EC50 is the concentration giving half of the maximal effect. A lower EC50 goes with an effect from little substance. As a reminder, the EC50 (read off the curve) is the concentration giving half of the maximal effect.

Substitutions are numbered along the chain they refer to. Numbers in names are those of the source.

Experiment [1] deals with T1, rat ASGR1 on CHO-S cells (rat, UniProt P02706 1-284).
T1 construct: whole, on cells
T1 sequence (looked up): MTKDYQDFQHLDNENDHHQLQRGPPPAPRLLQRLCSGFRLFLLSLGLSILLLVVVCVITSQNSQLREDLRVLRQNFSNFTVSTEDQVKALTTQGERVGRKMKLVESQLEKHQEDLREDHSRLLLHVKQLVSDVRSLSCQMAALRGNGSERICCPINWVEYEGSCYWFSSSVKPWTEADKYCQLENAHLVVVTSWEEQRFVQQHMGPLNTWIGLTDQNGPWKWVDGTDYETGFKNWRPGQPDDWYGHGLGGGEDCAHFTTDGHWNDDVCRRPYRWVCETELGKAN
Briefly: Guava flow cytometry on CHO-S cells expressing rat ASGR1. (In flow cytometry, cells or beads pass a laser one at a time.)

In experiment [2] the target is T2, Cynomolgus macaque ASGR1 on CHO-S cells (Cynomolgus macaque).
T2 construct: whole, on cells; also called Cynomologous ASGR1
As to the kind of experiment: Guava flow cytometry on CHO-S cells expressing cynomolgus ASGR1. On the procedure: (§1) Anti-human ASGR1 antibodies of this disclosure were examined for cross-reactivity with Cynomolgus macaque and rat ASGR1. Briefly, sequence encoding Cynomolgus macaque or rat ASGR1 was transiently transfected into CHO-S cells. Transfected cells were before performing cell binding assay. A total of about 1.5×10⁴ transfected cells/well were added to 96-well V-bottom assay plate, incubated at 37° C., 5% CO2 for 48-72 hours, and then washed with culture medium before adding 100 μl of each ASGR1 antibody at different concentrations starting from 100 nM and 3-fold dilutions to a total of eight wells. The cells with antibody were incubated for 40 minutes at 4° C., then washed three times with 200 μl of fresh culture medium. To each well was added 50 μl PE conjugated goat anti-human Fc (SouthemBiotech) at 1:200 dilution in culture medium and then incubated at 4° C. for 20 minutes. After washing the plate once, the treated cells were resuspended in 200 μl culture medium and then the stained cells were analyzed on GUAVA® using Incyte software.

Experiment [3] has as its target T2, Cynomolgus macaque ASGR1 on CHO-S cells. Briefly: Guava flow cytometry on CHO-S cells expressing cynomolgus ASGR1 (repeat of Table 15). On the procedure:
as §1

The target of experiment [4] is T3, His-tagged human ASGR1 extracellular domain (human, UniProt P07306 62-291).
T3 construct: extracellular domain; also called His-tagged human ASGR1 ECD; human ASGR1 ECD; not shown: His tag
T3 sequence (looked up): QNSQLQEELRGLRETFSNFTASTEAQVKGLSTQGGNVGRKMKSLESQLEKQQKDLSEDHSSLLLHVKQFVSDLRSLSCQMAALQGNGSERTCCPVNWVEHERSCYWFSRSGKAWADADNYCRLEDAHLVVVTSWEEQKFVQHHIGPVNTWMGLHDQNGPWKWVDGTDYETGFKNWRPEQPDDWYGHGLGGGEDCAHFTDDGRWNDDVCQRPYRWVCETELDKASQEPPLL
Briefly: Octet, His-tagged ASGR1 ECD on Penta-His sensors; N = association not sensitive to Ca2+ (binds also without calcium). On the procedure: Analysis of ASGR1 antibody binding to human ASGR1 ECD was performed using the OCTET® Red 96 instrument and analyzed using the OCTET®Data Analysis Software 9.0 (ForteBio). His-tagged human ASGR1 ECD was immobilized to OCTET® Penta-His biosensors and ASGR1 antibodies were subjected to avidity binding under the conditions described above. Association with the ASGR1 ECD was measured by the rate of and increase in magnitude of signal response at a given antibody concentration. Dissociation from the ASGR1 ECD was measured the rate of loss in signal upon removal of the antibody and further incubation with or without Ca²⁺.
For orientation: Biolayer interferometry detects binding as a change in optical thickness at a sensor tip.

Experiment [5] deals with T1, rat ASGR1 on CHO-S cells. Briefly: Guava flow cytometry on CHO-S cells expressing rat ASGR1. On the procedure: as §1
The source holds these as a separate data set.

Experiment [6] deals with T1, rat ASGR1 on CHO-S cells. Briefly: Guava flow cytometry on CHO-S cells expressing rat ASGR1 (repeat of Table 16). On the procedure:
as §1, with “Briefly,” for “Anti-human ASGR1 antibodies of this disclosure were examined for cross-reactivity with Cynomolgus macaque and rat ASGR1. Briefly,”, “(SouthernBiotech)” for “(SouthemBiotech)”
as §1

The target in experiment [7] is T4, human ASGR1 (asialoglycoprotein receptor 1) on cells (human, UniProt P07306 1-291).
T4 construct: whole, on cells; also called HepG2 cells; CHO-S cells transfected with human ASGR1 full length DNA
T4 sequence (looked up): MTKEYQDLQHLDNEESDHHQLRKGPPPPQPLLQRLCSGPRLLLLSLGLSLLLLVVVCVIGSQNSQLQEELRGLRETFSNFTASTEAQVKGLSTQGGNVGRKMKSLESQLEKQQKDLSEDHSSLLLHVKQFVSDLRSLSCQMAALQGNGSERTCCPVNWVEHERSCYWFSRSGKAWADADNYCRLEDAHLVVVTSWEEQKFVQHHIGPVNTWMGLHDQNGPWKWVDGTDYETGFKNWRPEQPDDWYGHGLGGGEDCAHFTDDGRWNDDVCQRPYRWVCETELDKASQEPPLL
As to the kind of experiment: flow cytometry on HepG2 cells, anti-human IgG PE secondary, MFI (Geo Mean). On the procedure: Briefly, 5×10⁴ HepG2 cells/well were contacted with titrating concentrations of anti-ASGR1 antibodies in FACS Buffer (FB: PBS+2% FBS+1 mM CaCl₂)) for 30 minutes at 4° C. Cells were washed twice in FB, then incubated in anti-human IgG PE secondary for 30 minutes at 4° C. Cells were washed twice in FB, then analyzed by flow cytometry.

Experiment [8] has as its target T5, human Fc-fused human ASGR1 extracellular domain (human, UniProt P07306 62-291).
T5 construct: extracellular domain; also called human Fc-fused ASGR1 ECD; not shown: human Fc
T5 sequence (looked up): T3 sequence (looked up)
Briefly: Octet binning, hFc-ASGR1 ECD on AHC sensors; competitor: ASGR1 mAb-A. On the procedure: The interactions of the anti-ASGR1 antibodies of this disclosure and control mAbs with human ASGR1 ECD were analyzed using the OCTET® Data Analysis Software 9.0 (ForteBio).

The target of another experiment is T6, rat CLEC10A (rat, UniProt P49301 59-306, limits assumed).
T6 construct: the assay is not described
T6 sequence (looked up): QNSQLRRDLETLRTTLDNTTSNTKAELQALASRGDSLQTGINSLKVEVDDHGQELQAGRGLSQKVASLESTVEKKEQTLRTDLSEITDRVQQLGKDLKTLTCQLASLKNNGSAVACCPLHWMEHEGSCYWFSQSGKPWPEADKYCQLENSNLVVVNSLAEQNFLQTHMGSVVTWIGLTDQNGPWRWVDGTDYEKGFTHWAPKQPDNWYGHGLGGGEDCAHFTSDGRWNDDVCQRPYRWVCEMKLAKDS
As to the kind of experiment: not described.

B1: hzH8K-1 (antibody, IgG1, V domains shown)
VH: QVQLQESGPGLVKPSQTLSLTCTVSGGSISSDYAWNWIRQHPGKGLEWIGYRSYRGSTSYNPSLKSRVTISVDTSKNQFSLKLSSVTAADTAVYYCARRGYYGSSSHWYFDVWGQGTTVTVSS
VL: DIQMTQSPSSLSASVGDRVTITCRASENIYSYLAWYQQKPGKAPKLLIYNAKTLAEGVPSRFSGSGSGTDFTLTISSLQPEDFATYYCQHHYGTPLTFGGGTKVEIK
notes: IgG1, kappa
With B1, the binding result with rat ASGR1 on CHO-S cells [1] is reported as “no binding (tested: 100 nM highest concentration)”. Also, the EC50 in [2] and in experiment [3] was 0.66 nM each time.

B2: hzL4L-7 (antibody, IgG1, V domains shown)
VH: QVQLQESGPGLVKPSQTLSLTCTVSGYSISSDYAWNWIRQHPGKGLEWIGYISYSGSTRYNPSLKSRVTITRDTSKNQFSLKLSSVTAADTAVYYCARRYRYDEGYGMDYWGQGTTVTVSS
VL: DIQMTQSPSSLSASVGDRVTITCRASENIYSNLAWYQQKPGKAPKLLIYAATNLADGVPSRFSGSGSGTDFTLTISSLQPEDFATYYCQHFWGTPPWTFGGGTKVEIK
notes: IgG1, kappa
For B2, the binding result in the experiment with rat ASGR1 on CHO-S cells [1] was “no binding (tested: 100 nM highest concentration)”; in experiment [4], “binds”. The EC50 in experiment [2] and in experiment [3] was 0.39 nM each time.

B3: J4F (antibody, V domains shown)
VH: QVQLQQSGDDLVKPGASVKLSCKASGYTFTSYWINWIKQRPGQGLEWIGRIVPGSGSTYYNEMFKDKATLTVDTSSSTAYIQLSSLSSEDSAVYFCARKPNFDVWGAGTTVTVSS
VL: DIVMTQSQKFMSTSVGDRVSVTCKASQNVGTNVAWYQQKPGQSPKAVIYSASYRFSGVPDRLTGSGSGTDFTLTITNVQSEDLAEYFCQQYNSYPLTFGAGTKLELK
notes: parental mouse hybridoma antibody; also called mAb J4F
Turning to B3, the concentration giving a half-maximal response (EC50) with rat ASGR1 on CHO-S cells [5] stood at 0.62 nM; in experiment [2], 0.67 nM; in the experiment with rat ASGR1 on CHO-S cells [6], 0.62 nM; in experiment [3] it was 0.67 nM. Further, in experiment [7], the “EC50 (read off the curve)” value was approximately 0.3 µg/mL.

B4: H8K (antibody, V domains shown)
VH: DVQLQESGPGLVKPSQSLSLTCTVTGFSITSDYAWNWIRQFPGNQLEWMGYRSYRGSTSYNPSLKSRISITRDTSKNQFFLQLNSVTTEDTATYYCARRGYYGSSSHWYFDVWGAGTTVTVSS
VL: DIQMTQSPASLSASVGETVTITCRASENIYSYLAWYQQKQGKSPQLLVYNAKTLAEGVPSRFSGSGSGTQFSLKINSLQPEDFGSYYCQHHYGTPLTFGSGTKLELK
notes: parental mouse hybridoma antibody; also called mAb H8K
B4: the binding result in experiment [8] and in experiment [7] was “binds” each time.

B5: L4L (antibody, V domains shown)
VH: DVQLQESGPGLVKPSQSLSLTCTVTGYSITSDYAWNWIRQFPGNKLEWMGYISYSGSTRYNPSLKSRISITRDTSKNQFFLQLNSVTTEDTATYYCARRYRYDEGYGMDYWGQGTSVTVSS
VL: DIQMTQSPASLSVFVGEIVTITCRASENIYSNLAWYQQKQGKSPQLLVYAATNLADGVPSRFTGSGSGTQFSLKINSLQSEDFGNYYCQHFWGTPPWTFGGGTKLEIK
notes: parental mouse hybridoma antibody; also called mAb L4L
Turning to B5, the binding result in [8] and in experiment [7] was “binds” each time.

B6: G2D (antibody, V domains shown)
VH: EVQLQQSGPELVKPGASVKISCKASGYSFTGYYMHWVKQSHVKSLEWIGRINPNNGATNYNQNFKDKASLTVDKSSSTAYMEFHSLTSEDSAVYYCTSVNFYYWGQGTTLTVSS
VL: DIKMTQSPSSMYASLGERVTITCKASQVINSYLSWFQQKPGKSPETLIYRANTLVDGVPSRFSGSGSGQDYSLTISSLEYEDLGIYYCLQYAEFPYTFGGGTKLEIK
notes: parental mouse hybridoma antibody; also called mAb G2D
As to B6, the binding result with rat CLEC10A is reported as “no binding”. Besides, the EC50 with rat ASGR1 on CHO-S cells [5] was 0.37 nM; in experiment [2], 0.47 nM; with rat ASGR1 on CHO-S cells [6], 0.37 nM; in experiment [3] it was 0.47 nM. Moreover, the “EC50 (read off the curve)” value in experiment [7] is approximately 0.2 µg/mL.

B7: K2E (antibody, V domains shown)
VH: QVQLQQSAAELARPGASVKMSCKASGYTFTSYTMHWVKQRPGQGLEWIGYISPSSGYTEYNQKFKDKTTLTADKSSSTAYMQLSSLTSEDSAVYYCARKFDYWGQGTTLTVSS
VL: B6 VL with V28D, E45K, T53R, Y71F, L83M, A92D, Y96F, G100S
notes: parental mouse hybridoma antibody; also called mAb K2E
As to B7, the half-maximal effective concentration (EC50) with rat ASGR1 on CHO-S cells [5] was determined as 0.52 nM; in [2], 0.68 nM; in the experiment with rat ASGR1 on CHO-S cells [6], 0.52 nM; in experiment [3], 0.68 nM. In experiment [7], the concentration for a half-maximal effect (EC50 (read off the curve)) was approximately 0.3 µg/mL.
